We go through seven molecules from patent publication US20230357384A1 (NEXTCURE, published 2023).

Changes are numbered by the printed parent chain.

Test [1] deals with T1, mouse FLRT3 on transiently transfected 293T cells (mouse, UniProt Q8BGT1 29-649).
T1 construct: also called mFLRT3
T1 sequence: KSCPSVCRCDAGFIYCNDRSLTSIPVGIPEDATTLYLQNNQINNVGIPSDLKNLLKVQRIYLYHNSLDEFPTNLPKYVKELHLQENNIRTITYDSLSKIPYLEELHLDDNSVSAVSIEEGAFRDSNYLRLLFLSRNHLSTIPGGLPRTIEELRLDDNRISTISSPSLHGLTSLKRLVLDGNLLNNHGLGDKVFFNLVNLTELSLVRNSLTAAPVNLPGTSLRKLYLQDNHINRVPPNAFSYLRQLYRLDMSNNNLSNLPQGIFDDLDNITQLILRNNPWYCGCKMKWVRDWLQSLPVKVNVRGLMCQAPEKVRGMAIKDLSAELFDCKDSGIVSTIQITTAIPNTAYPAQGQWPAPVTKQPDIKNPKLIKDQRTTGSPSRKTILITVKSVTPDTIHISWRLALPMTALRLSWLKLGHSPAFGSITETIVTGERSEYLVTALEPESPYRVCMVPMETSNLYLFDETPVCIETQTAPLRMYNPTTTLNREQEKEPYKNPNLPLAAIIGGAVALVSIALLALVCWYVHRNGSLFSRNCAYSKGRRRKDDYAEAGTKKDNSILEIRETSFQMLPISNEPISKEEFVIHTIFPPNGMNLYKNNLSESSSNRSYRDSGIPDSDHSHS
The experiment in a line: flow cytometry (AF647 MFI), transiently transfected mFLRT3-293T cells.

The target of test [2] is T2, FLRT3 (antigen of the binning assay of Table 2) (Homo sapiens (Human), UniProt Q9NZU0 29-528, limits assumed).
T2 construct: the whole entry for FLRT3 is named
T2 sequence: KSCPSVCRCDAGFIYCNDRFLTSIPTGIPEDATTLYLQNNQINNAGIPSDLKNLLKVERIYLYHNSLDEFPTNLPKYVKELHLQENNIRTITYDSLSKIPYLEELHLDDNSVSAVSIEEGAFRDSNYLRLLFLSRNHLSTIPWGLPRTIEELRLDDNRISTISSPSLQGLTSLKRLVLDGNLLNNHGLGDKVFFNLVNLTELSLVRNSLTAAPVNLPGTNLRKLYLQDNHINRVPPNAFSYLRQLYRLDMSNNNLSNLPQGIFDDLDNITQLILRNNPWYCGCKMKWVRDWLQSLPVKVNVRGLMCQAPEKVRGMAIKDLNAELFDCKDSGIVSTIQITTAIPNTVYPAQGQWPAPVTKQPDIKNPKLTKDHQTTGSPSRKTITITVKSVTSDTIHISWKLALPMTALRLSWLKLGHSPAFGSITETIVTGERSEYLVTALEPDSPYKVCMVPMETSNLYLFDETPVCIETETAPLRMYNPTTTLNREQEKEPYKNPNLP
The experiment in a line: antibody binning matrix (Table 2); competitor: 1H5.

The target of test [3] is T2, FLRT3 (antigen of the binning assay of …). The experiment in a line: antibody binning matrix (Table 2); competitor: 14B7.
Test [4] deals with T3, human FLRT3 on cells (human, UniProt Q9NZU0 29-649).
T3 construct: also called hFLRT3
T3 sequence: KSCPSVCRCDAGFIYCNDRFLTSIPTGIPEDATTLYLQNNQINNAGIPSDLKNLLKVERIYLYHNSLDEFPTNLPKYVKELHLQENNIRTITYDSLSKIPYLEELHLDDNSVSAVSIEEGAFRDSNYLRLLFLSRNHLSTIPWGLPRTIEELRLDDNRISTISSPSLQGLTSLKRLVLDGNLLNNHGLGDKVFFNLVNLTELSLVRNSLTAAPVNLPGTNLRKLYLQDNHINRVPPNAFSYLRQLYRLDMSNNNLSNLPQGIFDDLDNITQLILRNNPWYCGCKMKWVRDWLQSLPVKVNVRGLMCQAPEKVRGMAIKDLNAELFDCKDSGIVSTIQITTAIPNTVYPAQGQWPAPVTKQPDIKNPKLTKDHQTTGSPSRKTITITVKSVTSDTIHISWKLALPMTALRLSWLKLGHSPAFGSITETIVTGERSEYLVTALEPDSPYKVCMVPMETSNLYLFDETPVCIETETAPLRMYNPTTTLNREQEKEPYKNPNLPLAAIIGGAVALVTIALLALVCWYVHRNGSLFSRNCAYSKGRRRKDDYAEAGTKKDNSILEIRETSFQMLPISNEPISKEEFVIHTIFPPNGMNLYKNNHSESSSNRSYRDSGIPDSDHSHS
The experiment in a line: flow cytometry on 293T cells transfected with human FLRT3, normalised MFI, non-linear fit; Exp 2. The text has this: (§1) MFI values of each group were normalized within that group- i.e. largest value 100% and smallest value 0%.

The target of test [5] is T3, human FLRT3 on cells. The experiment in a line: flow cytometry on 293T cells transfected with human FLRT3, normalised MFI, non-linear fit; Exp 1.
Text: as §1

The target of test [6] is T2, FLRT3 (antigen of the binning assay of …). The experiment in a line: antibody binning matrix (Table 2); competitor: 15G11.
Test [7] concerns the target T3, human FLRT3 on cells. The experiment in a line: flow cytometry on 293T cells transfected with human FLRT3, normalised MFI, non-linear fit.
Text: as §1
(Flow cytometry measures light scatter and fluorescence of single cells or particles in a stream.)

Test [8] has as its target T2, FLRT3 (antigen of the binning assay of …). The experiment in a line: antibody binning matrix (Table 2); competitor: 5C2.
The target is the same in test [9]. The experiment in a line: antibody binning matrix (Table 2); row '1X Kinetic' (no first antibody), column antibody taken as binder.
Test [10] has the same target. The experiment in a line: antibody binning matrix (Table 2); competitor: 2F7.
For test [11] the target is unchanged. The experiment in a line: antibody binning matrix (Table 2); competitor: 14D3.
For test [12], the target named is T3, human FLRT3 on cells. The experiment in a line: flow cytometry on A549 cells (endogenous hFLRT3), normalised MFI, non-linear fit. As to the method: Increasing concentrations of FLRT3 antibodies bound to A549 cells that express endogenous hFLRT3 (FIG. 19). Binding curves for the top three antibodies were performed (FIG. 20A). MFI values of each group were normalized within that group- i.e. largest value 100% and smallest value 0% (FIG. 20A). EC50 values were calculated based on non-linear regression fit (FIG. 20B).

Test [13] has as its target T3, human FLRT3 on cells. The experiment in a line: flow cytometry (AF647 MFI), FLRT3-293T-OKT3 cells, antibody titration.
For test [14], the target named is T4, FLRT3-His monomeric fusion protein (Homo sapiens (Human), UniProt Q9NZU0 29-528).
T4 construct: also called FLRT3 monomer; not shown: His tag
T4 sequence: T2 sequence
The experiment in a line: kinetic affinity measurement with FLRT3-His monomer (Table 1).

B1: 14D3 (antibody, V domains shown)
VH: EIQLQQSGAELVKPGASVKISCKASGYSFTGYNMNWVKQSHGKSLEWIGNITPYYGSASYNQKFKGKATLTVDKSSSTAYMQLNSLTSEDSAVYYCARRSYDYDENAMDYWGQGTSVTVSS
VL: DIVMTQSHKFMSTSVGDRVSITCKASQDLSTAVAWYQQKPGQSPKLLIYSASYRYTGVPDRFTGSGSGTDFTFTISSVQAEDLAVYYCQQHYSTPLTFGAGTKLELK
notes: Variable domains only
Take B1: the binding result in [1] is given as “binds”. In addition, the “binning response (no name or unit printed)” value in [2] was 0.644; in [3] it was 1.36; in test [6], 0.196; in test [8] it was -0.101; in test [9], 0.947; in [10], 0.75. The “binning response (no name or unit printed)” value in [11] is -0.0406. The EC50 (usually the concentration needed to bring the measured effect to its halfway point) is 3.24 nM with human FLRT3 on cells [4], 1.82 nM in the test with human FLRT3 on cells [5], under 5 nM in the test with human FLRT3 on cells [7] and 8.21 nM with human FLRT3 on cells [12].

B2: 10C6 (antibody, V domains shown)
VH: EIQLQQSGAEMVKPGASVKISCKASGHSFTGYNMNWVKQSHEKSLEWIGNINPYYGSTSYNQKFKGKATLTVDKSSSTAYMQLNSLTSEDSAVYYCARGGYDDYFDYWGQGTTLTVSS
VL: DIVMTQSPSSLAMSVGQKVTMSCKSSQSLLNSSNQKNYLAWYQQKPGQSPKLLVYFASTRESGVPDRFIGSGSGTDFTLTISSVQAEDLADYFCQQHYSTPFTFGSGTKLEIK
notes: Variable domains only
Turning to B2, the binding result with human FLRT3 on cells [13] is recorded as “no binding (tested: about 300 nM)”.

B3: 7H7 (antibody, V domains shown)
VH: EIQLQQSGAELVKPGASVKISCKASGYSFTGYNMNWVKQSHGKSLEWIGNINPYYGSTSYNQKFKGKATLTVDKSSNTAYMQLNSLTSEDSAVYYCARWGYGYDDWYFDVWGAGTTVTVSS
VL: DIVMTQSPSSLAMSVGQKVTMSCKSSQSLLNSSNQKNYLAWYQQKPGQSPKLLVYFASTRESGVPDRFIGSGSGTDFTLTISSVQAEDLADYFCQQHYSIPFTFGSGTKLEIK
notes: Variable domains only
Turning to B3, in [14], the Kd (in general, a measure of binding affinity in units of concentration) was at most 0.001 nM; the koff (usually the rate constant with which the complex falls apart) is at most 1e-07 s⁻¹; the kon (as a rule, the second-order rate constant of association) worked out at 60500 M⁻¹ s⁻¹.

B4: 20C3 (antibody, V domains shown)
VH: EVKLEESGGGLVQPGGSMKLSCVVSGFTFSNYWMNWVRQSPEKGLEWVAQIRLKSDNYATHYAESVKGRFTISRDDSKSSVYLQMNNLRAEDTGIYYCTGESNIYYGYFDYWGQGTTLTVSS
VL: QIVLTQSPAIMSASPGEKVTMTCSASSSVSYMHWYQQKSGTSPKRWIYDTSKLASGVPARFSGSGSGTSYSLTISSMEAEDAATYYCQQWSGNPYTFGGGTKLEIK
notes: Variable domains only
For B4, in [14], the Kd worked out at 2.21 nM, the dissociation rate constant (koff) stood at 0.000207 s⁻¹ and the kon worked out at 86200 M⁻¹ s⁻¹.

B5: 1H5 (antibody, V domains shown)
VH: EVQLQQSGPELVKPGASVKMSCKASGYTFTDYYMNWVKQSHGKSLEWIGRVNPSNGVTSYNQKFKGKAALTVDKSLSTAYMQLNSLTSEDSAVYYCARDFLMDYWGQGTSVTVSS
VL: DIVMTQSHKFMSTSVGDRVTITCKASQDVGTAVAWYQQKPGQSPKLLIYWASTRHTGVPDRFTGSGSGTDFTLTISNVQSEDLADYFCQQYSSYPTFGGGTKLEIK
notes: Variable domains only
Regarding B5, the Kd in test [14] turned out to be 0.19 nM. Also, the koff in test [14] is 1.6e-05 s⁻¹. This molecule also had a kon in test [14] of 140000 M⁻¹ s⁻¹. Further, the “binning response (no name or unit printed)” value in [2] is -0.0568; in [3], 1.2; in test [6] it was 0.97; in test [8], -0.26; in test [9] it was 0.947; in test [10] it was -0.0098. Also, the “binning response (no name or unit printed)” value in test [11] worked out at 0.549. Besides, the EC50 (read off the curve) (commonly the concentration at which the effect is half-maximal) in the test with human FLRT3 on cells [13] is about 10 nM.

B6: 2F7 (antibody, V domains shown)
VH: EVQLQQSGPELVKPGASVKMSCKASGYTFTDYYMNWVKQSHGKSLEWIGRVYPSNSGASYNQKFKGKATLTVDKSLSTAYMQLNSLTSEDSAVYYCASSYYFDYWGQGTTLTVSS
VL: B5 VL with V15I, T20N, Y36F, G99A, K102T, I105L
notes: Variable domains only
B6 yielded a koff in test [14] of 0.000135 s⁻¹. For the same molecule, the kon in test [14] came to 177000 M⁻¹ s⁻¹. Besides, the “binning response (no name or unit printed)” value in [2] is -0.116; in test [3] it was 1.06; in test [6], 0.798; in test [8], -0.398; in test [9], 0.99; in [10] it was -0.0655. For the same molecule, in [11], the “binning response (no name or unit printed)” value came out at 0.38. For the same molecule, the half-maximal effective concentration (EC50 (read off the curve)) with human FLRT3 on cells [13] is about 8 nM.

B7: 12A4 (antibody, V domains shown)
VH: B5 VH with V57G, S59T, K63R, A69T, K74E
VL: B5 VL with T20S, A34T, Q42L, I48F, Q89H, S93N
notes: Variable domains only
For the molecule B7, in test [14], the Kd stood at 0.218 nM. This molecule also came in with a koff in test [14] of 3.24e-05 s⁻¹. Moreover, the kon in [14] turned out to be 133000 M⁻¹ s⁻¹. Also, the EC50 was found to be 17.7 nM with human FLRT3 on cells [4], 15.7 nM with human FLRT3 on cells [5] and 251 nM with human FLRT3 on cells [12].
